In the RNAGym collection of RNA variant scans (doi:10.7554/elife.90254):

B1: OR4K15 (parent)
chain: GUUAACGGUCAUAGGCCAUGGAAACUAGGAGCACCAUUUCGCUGCCAGUGAAGAAAUGAACAAAGAAAAUCUGGGCCAGGCAGGCAUCAAAAGAAAUAGUCUUGCGCUCAACCAGAAAGUCUGUAAUCAUUUUAAGGGUA

Variants of: B1
Assay: self-cleavage, relative activity (ratio to wild type); higher = more cleavage; in vitro, sequencing; the parent is a self-cleaving ribozyme

In order of rising self-cleavage:
1. U3C A111G  0.03
2. U3C U108C  0.04
3. A4C A111G  0.04
4. U2C A111G  0.04
5. U2C A114U  0.09
6. U2A A98G  0.1
7. U3C G74U  0.15
8. U2C A66U  0.2
9. U2C A78G  0.21
10. U2C G73A  0.22
11. U2C C76U  0.23
12. U3C U72C  0.25
13. G1A A114U  0.26
14. U2G A89G  0.3
15. U2A A114U  0.33
16. U2C U26A  0.37
17. U3C U102A  0.38
18. U2C U12G  0.39
19. U3A G74A  0.39
20. A4G A110G  0.4
21. U2C G48U  0.43
22. U2G A68G  0.43
23. U2C U70C  0.46
24. U3C U49C  0.5
25. A4G A69C  0.53
26. U2C A90G  0.54
27. A4G U43G  0.55
28. U3C A126G  0.58
29. A4G U12C  0.58
30. A4G A33U  0.59
31. U2C A116G  0.6
32. U2A A54G  0.63
33. U3A A30G  0.63
34. U3A U127C  0.63
35. U2G A62G  0.65
36. U3C A134U  0.67
37. U2A U70C  0.67
38. A4G A96C  0.67
39. U3C A116G  0.68
40. U3C A47U  0.68
41. U3G A59G  0.68
42. U2A U131C  0.69
43. U2C U39C  0.7
44. U2C U70A  0.71
45. U2A U122C  0.72
46. U2C U12C  0.74
47. U3C A125G  0.74
48. U2C A33G  0.74
49. U3A U103C  0.76
50. G1U A94G  0.76
51. A4G C10U  0.76
52. U2A A47U  0.78
53. A4G U19A  0.78
54. U3C A126U  0.79
55. U2A G44C  0.79
56. A4G A36U  0.79
57. U3G A24G  0.8
58. U2G A59G  0.81
59. U3C A125U  0.83
60. U2A U43C  0.84
61. U2A U130C  0.85
62. U2C A27G  0.85
63. U2G U103C  0.85
64. A4C A62G  0.88
65. U2A C10U  0.88
66. U2A G65A  0.89
67. U3A A118G  0.9
68. U3C A89C  0.91
69. A4G A134G  0.91
70. A4G A52U  0.92
71. U3C A30G  0.92
72. A4C A62U  0.93
73. U3G U26C  0.94
74. U2C U19C  0.96
75. U3C A67G  0.97
76. U2C G21A  0.98
77. U3C G119U  0.99
78. U3A U37C  0.99
79. U3A U38C  1
80. U3A  1
81. A4G A118G  1.01
82. U2C A60G  1.02
83. U3C A117U  1.02
84. U3C A95G  1.02
85. U2C U120A  1.03
86. U3C C25U  1.05
87. G1U  1.07
88. U3G  1.07
89. U2C A94G  1.08
90. U2C U131C  1.08
91. U3C  1.1
92. U3C U103C  1.12
93. U3C A51G  1.12
94. U3A U57C  1.14
95. A4G U87C  1.14
96. A4G A69U  1.14
97. U3A U70C  1.14
98. U2A U102C  1.15
99. U2C A24C  1.16
100. U2C A5U  1.16
101. U2C U19A  1.16
102. U2G A91G  1.16
103. U3A A47C  1.17
104. U3C A59G  1.17
105. U2C U39A  1.17
106. A4G A92G  1.18
107. A4C U100C  1.19
108. U2C A52G  1.19
109. U2C A23U  1.22
110. G1U A69U  1.22
111. U2A A62G  1.23
112. G1A U102G  1.23
113. U2C A90C  1.23
114. U2A A23U  1.24
115. U2C A33U  1.24
116. A4G A18U  1.25
117. U2C A52C  1.25
118. U3A A27G  1.25
119. A4G U43A  1.26
120. A4G A13G  1.27
121. U3C U130A  1.27
122. U2C G41A  1.29
123. U2C C45G  1.29
124. G1A A13G  1.29
125. U3C U43A  1.31
126. U3A A55C  1.31
127. A4G A69G  1.31
128. U2C A135G  1.32
129. G1A A114G  1.32
130. U3C A36U  1.33
131. U3A A64C  1.33
132. A4G A89G  1.34
133. U2A U37C  1.34
134. U2C G29A  1.36
135. U2A A18U  1.37
136. U3C A47G  1.39
137. U3C A36G  1.39
138. U2C U131A  1.39
139. A4G A96G  1.4
140. U2A A47G  1.42
141. U2C U39G  1.43
142. A4G A92U  1.44
143. U3C G119A  1.44
144. U2C A66G  1.45
145. U2C A24U  1.45
146. U2C A94U  1.48
147. U3C A92G  1.48
148. U2C A64G  1.48
149. U2G A11U  1.51
150. G1A  1.55
151. U2C A140U  1.55
152. U3C A69G  1.6
153. U2A A69G  1.62
154. U2A A134G  1.65
155. G1A A13C  1.66
156. U3A A60U  1.71
157. U3G A51G  1.72
158. U3C U26A  1.76
159. A4G A60U  1.76
160. A4G U19C  1.78
161. U3C U127C  1.79
162. U2A U38C  1.82
163. U2C A96C  1.85
164. G1C A135G  1.85
165. G1U A92G  1.91
166. U3C A94G  2.02
167. A4G C121A  2.03
